Measured values published in patent US20240228658A1 (IMMUNORIZON, published 2024).
Positions count from the first letter of the chain named. Like-named read-outs stand apart in the source and are kept apart here.

Legend:
[1] = target: T1, recombinant human 5T4 ECD protein fused to human Fc (human, UniProt Q13641 32-355); assay: ELISA, coated 5T4 antigen
T1 construct: extracellular domain; Immunogen, ELISA antigen and Octet analyte; also called 5T4-ECD-hFc; 5T4-ECD-Fc; not shown: human Fc
T1 sequence (looked up): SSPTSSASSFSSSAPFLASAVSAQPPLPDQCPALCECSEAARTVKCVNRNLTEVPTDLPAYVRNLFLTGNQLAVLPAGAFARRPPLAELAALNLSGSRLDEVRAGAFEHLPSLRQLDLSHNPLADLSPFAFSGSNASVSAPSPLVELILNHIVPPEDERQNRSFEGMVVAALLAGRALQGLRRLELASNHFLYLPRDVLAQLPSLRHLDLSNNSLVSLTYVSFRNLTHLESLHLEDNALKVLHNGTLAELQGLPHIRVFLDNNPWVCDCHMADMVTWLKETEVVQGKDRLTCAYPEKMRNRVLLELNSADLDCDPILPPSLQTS

[2] = target: T1, recombinant human 5T4 ECD protein fused …; assay: Octet, mAb on AMC sensor, 5T4-Fc as analyte
Experimental: (§1) Binding Affinities by Octet Test. Briefly, mAb were analyzed by Octet RED 384 instrument, where human 5T4-ECD Fc antigen at 200 nM and 100 nM served as the analyte and the purified mAbs at 5 μg/ml served as the ligand, bound to AMC sensor (anti mouse Fc antibody) with immobilized phase of 180 s, association phase of 300 s, dissociation phase of 180 s.
(§2) FIGS. 7A-7G present the Octet data determined the KD affinities of selected mAb.

[3] = target: T1, recombinant human 5T4 ECD protein fused …; assay: Octet, mAb on AMC sensor, 5T4-ECD Fc as analyte
Experimental: as §1, §2

[4] = target: T2, cyno 5T4 on CHO cells (cyno, UniProt Q4R8Y9 35-420); assay: FACS, CHO cells over expressing cyno 5T4
T2 construct: whole, on cells; also called CHO over expressing cyno 5T4
T2 sequence (looked up): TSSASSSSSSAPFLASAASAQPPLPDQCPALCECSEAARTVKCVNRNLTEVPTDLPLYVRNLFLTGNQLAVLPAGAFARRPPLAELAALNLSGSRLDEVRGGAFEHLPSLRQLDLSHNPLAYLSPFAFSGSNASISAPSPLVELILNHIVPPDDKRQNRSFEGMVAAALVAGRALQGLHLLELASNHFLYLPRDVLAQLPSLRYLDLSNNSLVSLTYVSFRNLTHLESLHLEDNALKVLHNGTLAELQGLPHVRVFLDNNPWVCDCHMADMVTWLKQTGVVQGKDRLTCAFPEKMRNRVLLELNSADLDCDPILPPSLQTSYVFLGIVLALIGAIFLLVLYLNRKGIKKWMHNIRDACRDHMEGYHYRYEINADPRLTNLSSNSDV

[5] = target: T3, h5T4-His (cat #19845-H08H, Sino Biological) (human, UniProt Q13641 32-355); assay: ELISA on recombinant 5T4 protein; ELISA on recombinant 5T4 protein
T3 construct: also called recombinant 5T4 protein; 5T4 recombinant antigen protein; not shown: His tag
T3 sequence (looked up): T1 sequence (looked up)

[6] = target: T4, human 5T4 on cells (human, UniProt Q13641 32-420); assay: FACS on CHO over expressing human 5T4; FACS, CHO over expressing human 5T4
T4 construct: whole, on cells; also called CHO cells over expressing human 5T4; MCF-7 (endogenous 5T4)
T4 sequence (looked up): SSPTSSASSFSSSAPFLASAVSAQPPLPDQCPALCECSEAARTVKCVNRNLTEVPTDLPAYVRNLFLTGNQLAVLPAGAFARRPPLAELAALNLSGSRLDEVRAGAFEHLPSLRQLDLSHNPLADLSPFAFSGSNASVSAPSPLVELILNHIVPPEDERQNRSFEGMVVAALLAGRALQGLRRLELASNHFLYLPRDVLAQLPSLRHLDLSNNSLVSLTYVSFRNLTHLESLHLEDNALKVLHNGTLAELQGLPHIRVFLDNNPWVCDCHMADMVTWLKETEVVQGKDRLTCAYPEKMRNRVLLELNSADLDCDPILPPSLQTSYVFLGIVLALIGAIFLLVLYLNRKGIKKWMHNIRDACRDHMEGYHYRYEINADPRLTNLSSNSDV

[7] = target: T1, recombinant human 5T4 ECD protein fused …; assay: Octet (data not shown; antigen format not stated here)
[8] = target: T2, cyno 5T4 on CHO cells; assay: FACS on CHO over expressing cyno 5T4 (data not shown); FACS, CHO over expressing cyno 5T4
[9] = target: T4, human 5T4 on cells; assay: FACS on MCF-7 cells endogenously expressing 5T4; FACS, MCF-7 endogenously expressing 5T4
[10] = target: T4, human 5T4 on cells; assay: FACS, CHO cells over expressing human 5T4
[11] = target: T1, recombinant human 5T4 ECD protein fused …; assay: ELISA, coated 5T4 antigen; remark: listed apart in the source
[12] = target: T2, cyno 5T4 on CHO cells; assay: FACS, CHO cells over expressing cyno 5T4; remark: listed apart in the source
[13] = target: T1, recombinant human 5T4 ECD protein fused …; assay: ELISA, coated 5T4 antigen; remark: listed apart in the source
[14] = target: T4, human 5T4 on cells; assay: FACS, CHO cells over expressing human 5T4; remark: listed apart in the source
[15] = target: T2, cyno 5T4 on CHO cells; assay: FACS, CHO cells over expressing cyno 5T4; remark: listed apart in the source
[16] = target: T1, recombinant human 5T4 ECD protein fused …; assay: ELISA, coated 5T4 antigen; remark: listed apart in the source

B1: mAb016 (antibody, V domains shown)
VH: AVQLQQSGPVRVKPGASVKMSCKASGYPFTDYYMNWVKQSHGRSLDWIGVFNPYNGDTRYTQKFKDKATLTIDKSSSTAYMELNSLTSEDSAVYYCARLRLLYDTSEYYVMDYWGQGTSVTVSS
VL: ENVLTQSPAIMSASPGEKVTMTCSASSSVNYMHWYQQKSNTSPKLWIYDTSKLASGVPGRFSGSGSGNSYSLTISSMEAEDVATYFCFQGSGYPYTFGGGTKLEIK
notes: also called mAb0016; IM, 5T4 mouse hybridoma cl-16
EC50 (read off the curve) [1]: ~0.2 nM | koff [2]: 3.48e-05 s⁻¹ | kon [2]: 150000 M⁻¹ s⁻¹ | Kd [3]: 0.232 nM

B2: mAb018 (antibody, V domains shown)
VH: EVQLRQSGPVLVKPGASLKMSCKASGFTIADYYMTWVTQSHGQSLDWIGLINPYSGETTYNQKFKGKATLSVDKSSNTAYMDLNSLTSEDSAVYYCARWRLGYYAMDYWGRGTSVTVSS
VL: B1 VL with N30S, N40S, L45V, F86Y, S91I
notes: also called IM, 5T4 mouse hybridoma cl-18
EC50 (read off the curve) [1]: ~0.3 nM | koff [2]: 6.97e-05 s⁻¹ | kon [2]: 259000 M⁻¹ s⁻¹ | binding result [4]: binds | Kd [3]: 0.269 nM

B3: mAb016-hIgG1 chimeric Ab (antibody, V domains shown)
VH: B1 VH
VL: B1 VL
notes: Mouse VH and VL of mAb016 cloned into human IgG1; also called mAb0016-IgG1
EC50 [5]: 0.3 nM | EC50 [6]: 1.1 nM | Kd [7]: 14.7 nM | EC50 [8]: 2.2 nM | EC50 [9]: 0.9 nM

B4: mAb008 (antibody, V domains shown)
VH: QVQLQQSGAELMKPGASVKLACKATGYTFTAYWIEWVKQRPGHGLEWIGEILPGRGSTNSNEKFKGKATFTADTSSNTVYMQLSSLTTEDSAIFYCARGYRDFDYWGQGTTLTVSS
VL: DIVMTQSQKFMSTTVGDRVSIICKASQNVGTAVAWYQQKPGQSPKVLIYSASNRYTGVPDRFTGSGSGTDFTLTISNMQSEDLADYFCQQYTSYPRTFGGGTKLEIK
notes: also called IM, 5T4 mouse hybridoma cl-8
EC50 (read off the curve) [10]: ~5 nM | koff [2]: 3.87e-05 s⁻¹ | kon [2]: 185000 M⁻¹ s⁻¹ | EC50 (read off the curve) [11]: ~0.3 nM | Kd [3]: 0.209 nM | EC50 (read off the curve) [12]: ~5 nM

B5: mAb014 (antibody, V domains shown)
VH: B4 VH with A9G, A21S, T28K, A31G, S60Y, F94Y, Y100G, Y105F, T110S
VL: DIQMTQTTSSLSASLGDRVTISCSASQGINSNLNWYQQKPDGTVKLLIYYTSSLHSGVPSRFSGSGSGTDYSLTISNLEPEDIATYYCQQYNKLPYTFGGGTKLEIK
notes: also called IM, 5T4 mouse hybridoma cl-14
EC50 (read off the curve) [13]: ~0.2 nM | binding result [4]: binds

B6: mAb008-hIgG1 chimeric Ab (antibody, V domains shown)
VH: B4 VH
VL: B4 VL
notes: Mouse VH and VL of mAb008 cloned into human IgG1
EC50 [5]: 0.4 nM | EC50 [6]: 5 nM | EC50 [8]: 5.7 nM | EC50 [9]: 4.4 nM

B7: mAb010 (antibody, V domains shown)
VH: B4 VH with Q5R, A21S, A31G, T58S, S60Y, F70L, T88I, F94Y, Y100G
VL: B5 VL with T7I, S22G, S31N, I48V, Y91F, N92I
notes: also called mAb10; IM, 5T4 mouse hybridoma cl-10
EC50 (read off the curve) [10]: ~3 nM | koff [2]: 9.53e-05 s⁻¹ | kon [2]: 206000 M⁻¹ s⁻¹ | EC50 (read off the curve) [11]: ~0.3 nM | Kd [3]: 0.463 nM | EC50 (read off the curve) [12]: ~4 nM

B8: mAb003 (antibody, V domains shown)
VH: B4 VH with A21S, A31G, G56D
VL: B4 VL with T92S
notes: also called IM, 5T4 mouse hybridoma cl-3
EC50 (read off the curve) [14]: ~4 nM | EC50 (read off the curve) [15]: ~5 nM | EC50 (read off the curve) [16]: ~0.4 nM

B9: mAb005 (antibody, V domains shown)
VH: EVQLVESGGGLVQPKGSLQLSCAASGFTFNTYAMHWVRQAPGKGLEWVARIRSKSSNYATYYADSVKDRFTISRDDSQSMLYLQMNNLKTEDTAMYYCVRDGDYYYGSRPSYWYFDVWGTGTTVTVSS
VL: DILLTQSPAILSVSPGERVSFSCRASQSIGTNIHWYQQRTNGSPRLLIKYASESISGIPSRFSGSGSGTDFTLSINNVESEDIADYYCQQTNTWPLTFGAGTKLDLK
notes: also called IM, 5T4 mouse hybridoma cl-5
koff [2]: 0.00024 s⁻¹ | kon [2]: 89300 M⁻¹ s⁻¹ | Kd [3]: 2.69 nM

B10: mAb006 (antibody, V domains shown)
VH: EVQLVESGGGLVKPGGSLKLSCAASGFTFSNYVMSWVRQTPEKRLEWVATISDRGSYTYYPDYVKGRFTISRDNAKNNLYLQMSHLKSEDTAMYYCARASYYSNLGFAYWGQGTLVTVSA
VL: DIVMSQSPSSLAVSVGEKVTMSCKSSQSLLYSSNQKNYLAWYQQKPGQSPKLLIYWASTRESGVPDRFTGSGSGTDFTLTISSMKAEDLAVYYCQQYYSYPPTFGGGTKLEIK
notes: also called IM, 5T4 mouse hybridoma cl-6
binding result [15]: binds | koff [2]: 0.00125 s⁻¹ | kon [2]: 220000 M⁻¹ s⁻¹ | Kd [3]: 5.67 nM
